Legend:
[1] = test system: AncSZ; experiment: phosphorylation enrichment, bacterial display (enrichment ratio); higher = better substrate or ligand; peptides without Tyr show the background
[2] = molecular target: EPHB1 (UniProt P54762); experiment: as above
[3] = molecular target: EPHB2 (UniProt P29323); experiment: as above
[4] = molecular target: FGFR1 (UniProt P11362); experiment: as above
[5] = molecular target: FGFR3 (UniProt P22607); experiment: as above
[6] = test system: Fer (mouse); experiment: as above
[7] = molecular target: Fes (UniProt P07332); experiment: as above
Chain of Fes (P07332 whole entry, looked up): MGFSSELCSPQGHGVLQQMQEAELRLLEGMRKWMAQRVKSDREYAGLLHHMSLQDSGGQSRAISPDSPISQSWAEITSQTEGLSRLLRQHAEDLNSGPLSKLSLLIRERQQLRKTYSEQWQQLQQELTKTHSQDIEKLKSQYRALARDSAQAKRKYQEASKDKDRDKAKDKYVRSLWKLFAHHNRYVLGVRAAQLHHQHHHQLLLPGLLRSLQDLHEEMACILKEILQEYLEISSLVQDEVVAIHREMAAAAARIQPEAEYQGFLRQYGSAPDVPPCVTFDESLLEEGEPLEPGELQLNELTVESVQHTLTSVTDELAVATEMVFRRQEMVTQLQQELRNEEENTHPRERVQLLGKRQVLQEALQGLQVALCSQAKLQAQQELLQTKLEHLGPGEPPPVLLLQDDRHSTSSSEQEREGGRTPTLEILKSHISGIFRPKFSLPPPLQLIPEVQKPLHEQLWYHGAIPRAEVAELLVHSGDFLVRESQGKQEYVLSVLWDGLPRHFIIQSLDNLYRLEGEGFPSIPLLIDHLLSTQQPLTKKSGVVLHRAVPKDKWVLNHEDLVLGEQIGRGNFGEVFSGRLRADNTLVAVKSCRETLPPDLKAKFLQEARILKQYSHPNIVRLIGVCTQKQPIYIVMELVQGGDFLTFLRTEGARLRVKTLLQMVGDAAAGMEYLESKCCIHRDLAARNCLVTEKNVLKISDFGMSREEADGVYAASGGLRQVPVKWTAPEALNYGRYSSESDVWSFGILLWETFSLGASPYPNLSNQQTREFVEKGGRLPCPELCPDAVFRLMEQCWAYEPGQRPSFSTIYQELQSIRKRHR

[8] = molecular target: Fyn (UniProt P06241); experiment: as above
Chain of Fyn (P06241 whole entry, looked up): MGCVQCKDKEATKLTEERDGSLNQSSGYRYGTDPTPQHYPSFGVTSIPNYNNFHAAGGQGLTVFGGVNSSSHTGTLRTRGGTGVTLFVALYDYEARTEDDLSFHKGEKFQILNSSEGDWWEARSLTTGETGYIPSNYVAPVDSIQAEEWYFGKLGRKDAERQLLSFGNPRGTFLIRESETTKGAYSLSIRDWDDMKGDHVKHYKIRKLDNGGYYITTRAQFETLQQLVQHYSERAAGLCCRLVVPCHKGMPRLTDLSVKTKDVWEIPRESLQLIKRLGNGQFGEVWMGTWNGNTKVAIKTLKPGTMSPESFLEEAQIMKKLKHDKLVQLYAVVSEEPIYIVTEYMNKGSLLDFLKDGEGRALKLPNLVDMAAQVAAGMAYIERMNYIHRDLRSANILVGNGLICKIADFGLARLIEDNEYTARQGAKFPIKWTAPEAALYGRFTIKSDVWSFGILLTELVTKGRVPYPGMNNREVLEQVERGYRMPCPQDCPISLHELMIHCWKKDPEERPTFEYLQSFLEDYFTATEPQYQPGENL

[9] = molecular target: Hck (UniProt P08631); experiment: as above
Chain of Hck (P08631 whole entry, looked up): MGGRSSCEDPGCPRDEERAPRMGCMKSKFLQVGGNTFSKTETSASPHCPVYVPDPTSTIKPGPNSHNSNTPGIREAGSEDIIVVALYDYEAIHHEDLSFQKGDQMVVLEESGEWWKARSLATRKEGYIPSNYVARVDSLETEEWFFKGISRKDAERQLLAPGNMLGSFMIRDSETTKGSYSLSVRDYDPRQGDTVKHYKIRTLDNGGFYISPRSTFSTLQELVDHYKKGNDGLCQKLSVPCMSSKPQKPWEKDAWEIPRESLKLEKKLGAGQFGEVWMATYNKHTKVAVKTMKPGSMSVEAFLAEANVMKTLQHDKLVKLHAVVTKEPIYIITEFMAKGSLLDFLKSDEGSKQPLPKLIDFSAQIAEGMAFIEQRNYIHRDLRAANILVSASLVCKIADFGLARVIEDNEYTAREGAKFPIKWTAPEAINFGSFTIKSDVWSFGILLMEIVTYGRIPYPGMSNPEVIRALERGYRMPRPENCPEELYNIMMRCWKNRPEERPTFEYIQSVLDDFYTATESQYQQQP

[10] = molecular target: Jak2 (UniProt O60674); experiment: as above
Chain of Jak2 (O60674 whole entry, looked up): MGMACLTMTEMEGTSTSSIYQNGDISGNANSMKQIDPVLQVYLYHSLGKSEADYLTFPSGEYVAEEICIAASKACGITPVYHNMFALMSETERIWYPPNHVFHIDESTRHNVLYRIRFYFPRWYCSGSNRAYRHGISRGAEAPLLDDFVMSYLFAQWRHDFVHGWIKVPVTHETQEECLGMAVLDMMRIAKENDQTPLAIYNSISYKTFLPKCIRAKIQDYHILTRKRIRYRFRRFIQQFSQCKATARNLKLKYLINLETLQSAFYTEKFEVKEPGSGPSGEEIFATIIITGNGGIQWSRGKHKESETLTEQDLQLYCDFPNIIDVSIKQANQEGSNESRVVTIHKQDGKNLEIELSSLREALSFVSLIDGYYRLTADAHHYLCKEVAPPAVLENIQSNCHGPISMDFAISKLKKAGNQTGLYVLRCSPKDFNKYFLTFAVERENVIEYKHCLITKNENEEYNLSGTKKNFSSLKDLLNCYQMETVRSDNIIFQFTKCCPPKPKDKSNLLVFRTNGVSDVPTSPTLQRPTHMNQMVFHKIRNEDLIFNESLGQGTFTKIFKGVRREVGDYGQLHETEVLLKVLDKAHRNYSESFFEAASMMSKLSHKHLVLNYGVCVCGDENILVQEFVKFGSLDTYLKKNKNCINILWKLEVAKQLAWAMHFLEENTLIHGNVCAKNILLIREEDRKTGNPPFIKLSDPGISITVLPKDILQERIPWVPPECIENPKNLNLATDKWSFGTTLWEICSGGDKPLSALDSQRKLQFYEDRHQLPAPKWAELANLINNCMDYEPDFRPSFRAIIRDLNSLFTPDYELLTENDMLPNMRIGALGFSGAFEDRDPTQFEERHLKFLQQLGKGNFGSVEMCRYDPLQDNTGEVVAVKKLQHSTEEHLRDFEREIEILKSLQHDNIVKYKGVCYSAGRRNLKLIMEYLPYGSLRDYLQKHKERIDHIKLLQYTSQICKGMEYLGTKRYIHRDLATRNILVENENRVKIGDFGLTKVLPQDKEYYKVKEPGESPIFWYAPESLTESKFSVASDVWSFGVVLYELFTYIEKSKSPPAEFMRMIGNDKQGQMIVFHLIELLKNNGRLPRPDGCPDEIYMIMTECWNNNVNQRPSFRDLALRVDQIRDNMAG

[11] = molecular target: MERTK (UniProt Q12866); experiment: as above
[12] = test system: c-Abl (mouse); experiment: as above
[13] = test system: c-Src; experiment: as above
[14] = molecular target: Grb2 SH2 (UniProt P62993); experiment: SH2 binding enrichment of the phosphorylated peptide, bacterial display (enrichment ratio); higher = better substrate or ligand; peptides without Tyr show the background
[15] = molecular target: SHP2-C SH2; experiment: as above
[16] = molecular target: c-Src SH2; experiment: as above
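For SH2 binding enrichment of the phosphorylated peptide, bacterial display in this document: peptide library displayed on the E. coli surface as eCPX fusions, selected cells deep-sequenced, score is each peptide's frequency after selection divided by its frequency in the input.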
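For phosphorylation enrichment, bacterial display in this document: 11-residue human phosphosite peptides and single-mutation variants displayed on the E. coli surface, counted by deep sequencing, each peptide's frequency after selection divided by its frequency in the unselected input library; frequency after pTyr selection over input frequency; kinase dosed for 20-30% of maximal phosphorylation in three min.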

Chain of FGFR3 (P22607 whole entry, looked up): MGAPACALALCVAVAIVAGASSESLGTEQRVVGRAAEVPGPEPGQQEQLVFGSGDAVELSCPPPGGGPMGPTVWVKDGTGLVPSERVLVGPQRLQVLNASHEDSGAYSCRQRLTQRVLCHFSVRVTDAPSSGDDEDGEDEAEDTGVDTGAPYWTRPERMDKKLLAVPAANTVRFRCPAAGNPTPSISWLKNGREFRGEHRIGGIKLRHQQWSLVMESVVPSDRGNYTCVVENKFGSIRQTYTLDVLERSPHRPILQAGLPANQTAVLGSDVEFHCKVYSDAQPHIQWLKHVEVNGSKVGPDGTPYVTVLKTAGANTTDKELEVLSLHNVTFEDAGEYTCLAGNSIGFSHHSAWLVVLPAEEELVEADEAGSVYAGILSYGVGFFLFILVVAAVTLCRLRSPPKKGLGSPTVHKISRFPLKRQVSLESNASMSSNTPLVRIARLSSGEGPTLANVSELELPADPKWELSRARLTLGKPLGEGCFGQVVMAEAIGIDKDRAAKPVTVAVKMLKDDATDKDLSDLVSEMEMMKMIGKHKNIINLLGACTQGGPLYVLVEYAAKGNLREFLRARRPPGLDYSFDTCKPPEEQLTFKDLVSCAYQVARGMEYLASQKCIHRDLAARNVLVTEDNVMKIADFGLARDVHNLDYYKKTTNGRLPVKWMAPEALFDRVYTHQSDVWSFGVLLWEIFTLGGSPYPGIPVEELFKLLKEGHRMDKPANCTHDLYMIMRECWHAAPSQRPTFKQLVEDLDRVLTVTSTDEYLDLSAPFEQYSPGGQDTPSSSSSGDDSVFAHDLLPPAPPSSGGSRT
Chain of EPHB1 (P54762 whole entry, looked up): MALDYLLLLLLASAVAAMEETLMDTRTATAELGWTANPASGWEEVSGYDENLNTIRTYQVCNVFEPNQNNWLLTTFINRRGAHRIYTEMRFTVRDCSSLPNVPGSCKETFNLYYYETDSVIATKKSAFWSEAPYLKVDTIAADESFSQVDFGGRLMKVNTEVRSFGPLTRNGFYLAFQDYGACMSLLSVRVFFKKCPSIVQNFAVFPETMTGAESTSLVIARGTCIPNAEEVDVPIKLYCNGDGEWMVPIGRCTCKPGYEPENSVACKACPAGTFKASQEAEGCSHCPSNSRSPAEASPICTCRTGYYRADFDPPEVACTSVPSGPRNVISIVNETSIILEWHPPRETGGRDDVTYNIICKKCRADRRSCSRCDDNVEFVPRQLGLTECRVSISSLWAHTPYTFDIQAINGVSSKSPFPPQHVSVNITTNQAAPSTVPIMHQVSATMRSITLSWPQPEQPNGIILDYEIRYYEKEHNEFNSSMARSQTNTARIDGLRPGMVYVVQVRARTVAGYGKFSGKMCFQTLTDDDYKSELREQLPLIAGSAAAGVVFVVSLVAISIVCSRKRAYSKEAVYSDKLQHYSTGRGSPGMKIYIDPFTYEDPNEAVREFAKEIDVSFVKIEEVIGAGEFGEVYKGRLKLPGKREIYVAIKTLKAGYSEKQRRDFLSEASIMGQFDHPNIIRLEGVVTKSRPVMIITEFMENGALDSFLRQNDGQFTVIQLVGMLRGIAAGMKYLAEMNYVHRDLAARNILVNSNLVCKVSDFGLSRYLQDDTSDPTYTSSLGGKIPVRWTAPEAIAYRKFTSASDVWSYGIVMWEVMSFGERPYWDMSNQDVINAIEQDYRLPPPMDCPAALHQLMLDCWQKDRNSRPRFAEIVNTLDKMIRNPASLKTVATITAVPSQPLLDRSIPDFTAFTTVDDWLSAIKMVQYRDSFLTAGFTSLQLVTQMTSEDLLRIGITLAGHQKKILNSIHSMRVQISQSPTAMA

SH2 binding enrichment [14]	SH2 binding enrichment [15]	SH2 binding enrichment [16]	Sequence	phosphorylation enrichment [1]	phosphorylation enrichment [2]	phosphorylation enrichment [3]	phosphorylation enrichment [4]	phosphorylation enrichment [5]	phosphorylation enrichment [6]	phosphorylation enrichment [7]	phosphorylation enrichment [8]	phosphorylation enrichment [9]	phosphorylation enrichment [10]	phosphorylation enrichment [11]	phosphorylation enrichment [12]	phosphorylation enrichment [13]
1.17	0.87	0.777	LLVVLYKYRCY [PSEN1_Y154]	1.11	0.318	0.642	0.686	0.615	0.699	1.79	0.532	0.708	0.974	0.746	1.57	0.609
0.683	0.85	5.63	GESQGYDIMEP [MSH2_Y863]	1.14	0.541	0.555	0.424	0.642	0.441	0.94	0.454	0.487	0.827	0.472	0.605	0.419
0.783	0.557	0.371	PPNSPYIGSSP [KCNT1_Y740]	0.501	0.493	0.468	0.537	0.362	0.382	0.557	0.464	0.457	0.417	0.422	0.572	0.352
0.806	0.452	0.438	SLTRLYVGENA [NLRP3_Y861]	0.725	0.357	0.521	0.485	0.517	0.444	0.703	0.424	0.554	0.494	0.34	0.496	0.357
1.01	0.762	1.24	FKEQGYHRLPS [RIN1_Y681_P686S_YF]	1.23	1.26	0.603	2.57	0.583	0.822	1.49	0.305	0.63	2.09	1.05	1.3	0.818
1.64	1.5	1.24	KRGASYILKLA [SERPINB1_Y84]	0.96	0.37	0.477	0.509	0.76	0.415	1.06	0.408	0.414	0.952	0.421	0.802	0.421
0.717	0.596	0.447	ADGLEYSRTEL [MMUT_Y287_G291E]	1.03	0.483	0.572	0.552	0.637	0.56	0.873	0.527	0.547	0.747	0.437	0.621	0.461
1.94	1.59	1.93	CTTIHYNFVCN [TP53_Y234_M237V_YF]	0.998	0.678	0.654	0.694	0.769	0.694	1.11	0.539	0.54	1.01	0.508	0.754	0.532
0.769	0.795	2.44	HGEAYYSEVKP [PAK5_Y182]	2.68	2.27	1.8	3.13	1.93	11.2	1.62	1.96	3.85	1.7	11.2	1.79	2.99
0.688	0.632	0.559	EHIEFYELDKK [PMM2_Y145_R141H]	1.01	0.4	0.492	0.487	0.571	0.456	1.1	0.566	0.445	0.746	0.514	0.588	1.11
0.815	0.69	0.632	VQVAFYTVMMN [SPATA17_Y84_M86V_YF]	1.18	1.17	0.737	0.643	0.959	0.677	1.44	0.567	0.605	1.36	1.84	1.07	0.71
0.685	0.691	0.344	SREDIYKRNTE [PDE4DIP_Y45_I49T]	0.8	0.62	0.416	0.411	0.696	0.463	1.05	0.409	0.429	0.81	0.374	0.898	0.451
0.877	0.717	0.52	FADIAYNYRHG [PAH_Y166]	0.711	0.45	0.503	0.403	0.561	0.456	0.887	0.423	0.462	0.754	0.404	0.577	0.398
0.969	0.893	0.541	NGLVACKDGKL [PMM2_Y76_Y76C]	0.486	0.397	0.524	0.392	0.484	0.419	0.43	0.416	0.401	0.435	0.367	0.401	0.387
1.03	1.11	0.655	ISPPVYLTNEW [NRK_Y885]	1.13	0.694	0.724	0.704	0.718	0.698	1.09	0.825	0.732	1.1	0.542	0.92	0.766
1.38	0.938	0.775	RHPLEYLRQYP [NARS2_Y138]	0.664	0.523	0.45	0.75	0.586	0.536	1.13	0.579	0.561	1.22	0.454	1.37	0.577
0.661	0.629	0.557	ADARMYGVLPR [PLP1_Y207_W212R]	0.598	0.378	0.477	0.467	0.44	0.385	0.467	0.536	3.23	0.398	0.405	0.481	0.727

More lines, now with the values behind:

Sequence	SH2 binding enrichment [14]	SH2 binding enrichment [15]	SH2 binding enrichment [16]	phosphorylation enrichment [1]	phosphorylation enrichment [2]	phosphorylation enrichment [3]	phosphorylation enrichment [4]	phosphorylation enrichment [5]	phosphorylation enrichment [6]	phosphorylation enrichment [7]	phosphorylation enrichment [8]	phosphorylation enrichment [9]	phosphorylation enrichment [10]	phosphorylation enrichment [11]	phosphorylation enrichment [12]	phosphorylation enrichment [13]
ITLKGYNLSNS [GNPTAB_Y728_K732N]	1.05	0.884	0.627	0.66	0.385	0.487	0.525	0.618	0.433	0.639	0.488	0.477	0.547	0.381	0.466	0.448
TYGVLYKARNK [CDK2_Y19_V18L]	0.962	0.624	0.406	0.539	0.398	0.532	0.394	0.483	0.438	0.691	2.88	2.86	0.565	0.689	0.519	3.29
HIAKGYRRDNP [HARS1_Y156_V155G]	0.456	0.43	0.213	0.731	0.363	0.429	0.33	0.326	0.438	0.539	0.427	0.572	0.409	0.399	0.543	0.451
AKFPSYEKNKK [FOXL2_Y91_F90S]	0.907	0.894	0.615	0.624	0.577	0.396	0.618	0.475	0.49	0.7	0.423	0.44	1.07	0.499	0.544	0.562
ENKGVYVLMSG [IVD_Y277]	0.987	0.892	3.06	1.2	0.727	0.626	2.5	1.79	0.599	1.26	0.561	0.518	1.23	1.13	0.739	0.788
GGYNNYGYGND [HNRNPH3_Y159]	1.22	0.571	0.934	0.802	1.92	3.79	0.66	0.688	0.672	0.849	0.805	0.556	0.808	0.565	1.24	0.456
LNPDGYKKAFE [CPXM2_Y427_E428K_YF]	0.945	0.578	0.488	1.02	0.727	0.793	0.866	0.833	0.67	2.1	0.495	0.54	1.68	0.727	1.28	0.827
LGRKLYSIAAP [ABHD12_Y345]	0.788	0.583	0.593	1.3	0.664	1.04	0.543	1.12	0.952	1.13	0.737	0.73	2.38	1.04	0.892	0.647
ALHRPYGCDVE [ABL2_Y80]	1.01	0.72	0.582	0.871	0.59	0.456	0.412	0.531	0.538	0.782	0.447	0.379	0.541	0.357	0.571	0.324
YVKEPYIQSRF [HIPK4_Y175]	1.11	0.721	0.769	0.628	0.406	0.465	0.491	0.528	0.411	0.77	0.469	0.416	0.507	0.53	0.457	0.329
FARNSYVAGQY [G6PD_Y107]	0.826	0.651	0.495	0.516	0.322	0.4	0.403	0.415	0.347	0.544	0.389	0.385	0.502	0.405	0.449	0.535
FVKEPYIQSRF [HIPK4_Y175_YF]	0.942	0.785	0.509	0.569	0.402	0.452	0.375	0.479	0.43	0.702	0.374	0.402	0.607	0.39	0.447	0.418
SLQFEYVHFGG [CDC14A_Y591_S589F_YF]	1.08	0.925	0.643	1.25	0.612	0.682	1.47	1.33	0.367	1.29	0.548	0.557	1.12	0.426	0.781	0.604
GKGGSYSQAAS [HLA-B_Y344_C349S]	0.609	0.785	0.434	0.548	0.47	0.41	0.515	0.52	0.441	0.819	0.362	0.462	0.651	0.493	0.622	0.529
YSTDYYRVGGH [NTRK2_Y707]	0.787	0.922	0.691	2.31	5.71	3.5	14.2	11.1	0.44	0.732	1.68	2.55	8.96	9.44	1.03	2.22
PGLRGYPGLSG [COL4A2_Y306]	0.958	0.698	0.383	0.709	0.894	0.442	0.621	0.468	0.449	0.87	0.481	0.505	1.45	0.599	0.508	0.674

Source: the supplement of paper PMC10065799, “High-throughput profiling of sequence recognition by tyrosine kinases and SH2 domains using bacterial peptide display” (eLife, 2023)
